We go through three molecules from publication doi:10.1101/407197.

Read-outs that look alike come from different tables or passages of the source.

Series [1] concerns the target T1, MIWI (mouse, UniProt Q9JMB7 1-862). Kind of series: EMSA. Background: Mobility shift assays separate free from complexed probe on a gel.
Series [2] addresses T1, MIWI. As to the kind of experiment: EMSA. This is another data set of the same source.

T1 sequence (Q9JMB7 whole entry): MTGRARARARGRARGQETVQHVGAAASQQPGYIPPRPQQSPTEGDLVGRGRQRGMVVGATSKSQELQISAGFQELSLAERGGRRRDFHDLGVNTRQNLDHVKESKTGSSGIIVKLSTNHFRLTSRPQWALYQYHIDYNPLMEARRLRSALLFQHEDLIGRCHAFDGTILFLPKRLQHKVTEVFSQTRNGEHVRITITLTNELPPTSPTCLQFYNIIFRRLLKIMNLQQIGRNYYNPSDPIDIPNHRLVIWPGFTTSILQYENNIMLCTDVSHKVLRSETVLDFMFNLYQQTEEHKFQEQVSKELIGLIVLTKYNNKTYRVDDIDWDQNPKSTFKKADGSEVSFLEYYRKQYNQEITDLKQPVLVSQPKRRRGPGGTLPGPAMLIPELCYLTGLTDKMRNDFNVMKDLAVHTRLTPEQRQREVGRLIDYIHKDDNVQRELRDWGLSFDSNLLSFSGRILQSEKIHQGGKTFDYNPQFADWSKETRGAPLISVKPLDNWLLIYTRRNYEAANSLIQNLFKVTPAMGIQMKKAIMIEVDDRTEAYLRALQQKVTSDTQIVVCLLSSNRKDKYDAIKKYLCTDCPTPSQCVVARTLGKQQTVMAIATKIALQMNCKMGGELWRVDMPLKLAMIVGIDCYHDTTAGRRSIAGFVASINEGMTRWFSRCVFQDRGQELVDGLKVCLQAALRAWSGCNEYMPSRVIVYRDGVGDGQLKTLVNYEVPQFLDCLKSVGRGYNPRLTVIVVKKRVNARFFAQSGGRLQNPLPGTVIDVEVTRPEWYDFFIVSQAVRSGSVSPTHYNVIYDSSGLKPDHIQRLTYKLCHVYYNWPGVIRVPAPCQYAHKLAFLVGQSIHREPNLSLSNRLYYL

Take CCUCAUGAAGAAGAGGAGGAGGA (ssRNA) [Ssty RNA oligonucleotide (putative piRNA)]: the binding result in the series with MIWI [1] was “binds”.

Consider UGACAUGAACACAGGUGCUCAGAUAGCUUU (ssRNA) [piR1], for which the binding result with MIWI [2] is listed as “binds”.

On to CAGUUAAAGAAAUGCAUGAGAA (ssRNA) [Sly RNA oligonucleotide (putative piRNA)], for which the binding result in the series with MIWI [1] is listed as “binds”.
